{"source": "paper PMC8209680", "about": "(Cell reports, 2021)", "binders": {"B1": {"name": "Mtb DnaK NBD (residues 1–359) (domain or fragment)", "chain": "MARAVGIDLGTTNSVVSVLEGGDPVVVANSEGSRTTPSIVAFARNGEVLVGQPAKNQAVTNVDRTVRSVKRHMGSDWSIEIDGKKYTAPEISARILMKLKRDAEAYLGEDITDAVITTPAYFNDAQRQATKDAGQIAGLNVLRIVNEPTAAALAYGLDKGEKEQRILVFDLGGGTFDVSLLEIGEGVVEVRATSGDNHLGGDDWDQRVVDWLVDKFKGTSGIDLTKDKMAMQRLREAAEKAKIELSSSQSTSINLPYITVDADKNPLFLDEQLTRAEFQRITQDLLDRTRKPFQSVIADTGISVSEIDHVVLVGGSTRMPAVTDLVKELTGGKEPNKGVNPDEVVAVGAALQAGVLKGE"}}, "biological_target": "Mtb ClpB M-domain motif 2 protein (residues 467–518) (Mycobacterium tuberculosis, UniProt P9WPD1 467-518)", "sequence (P9WPD1 467-518)": "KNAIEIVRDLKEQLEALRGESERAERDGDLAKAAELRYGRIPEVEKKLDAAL", "test": "ITC"}
{"binder": "B1", "values": [{"measurement": "stoichiometry N", "result": "~1"}]}
